Laboratory results: the supplement of paper PMC10724198

Key:
[1] = tested on: Saccharomyces cerevisiae; assay: protein stability index of tFT-peptide fusion in wild type (PSI (0-1 scale)); higher = more stable (slower turnover); details: genetic background: wild type
Method: (§1)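 MPS profiling in S. cerevisiae of two library types built from selected 12-aa C-degron peptides (IN1, IN2, LN1, LN3, VN2, R1-R5, W1-W3, Atg1 and Rpa12 C-termini): saturation mutagenesis libraries and C-terminal +1 capping libraries (13 aa). Each peptide is fused to the C-terminus of a sfGFP-mCherry timer, after a GGGS linker. Cells are FACS-sorted into 8 mCherry/sfGFP bins and sequenced. PSI runs from 0 (unstable) to 1 (stable), measured once in wild type and in the das1Δ or doa10Δ background.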

[2] = tested on: Saccharomyces cerevisiae; assay: protein stability index of tFT-peptide fusion in deletion strain of DAS1 (PSI (0-1 scale)); higher = more stable (slower turnover)
Method: as §1
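Throughout, for protein stability index of tFT-peptide fusion in deletion strain of DAS1: PSI is a weighted mean of each variant's read distribution over the sorted stability bins, computed only for variants having over 10 reads in total.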
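Throughout, for protein stability index of tFT-peptide fusion in wild type: PSI derived as read-weighted mean over the 8 sorting bins, only variants exceeding 10 total reads kept, mCherry placed adjacent to the peptide and sfGFP distal.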

Sequence | protein stability index [1] | protein stability index [2]
PDKRNHLICLLN | 0.269 | 0.608
PDKRNHLIDLLN | 0.591 | 0.624
PDKRNHLIKKLN | 0.0795 | 0.581
PDKRNHLIKLLQ | 0.205 | 0.605
PDKRNHLIKSLN | 0.298 | 0.627
PDKRNHLIKYLN | 0.0757 | 0.638
PDKRNHLMKLLN | 0.089 | 0.592
PDKRNHLWKLLN | 0.0949 | 0.601
PDKRNHQIKLLN | 0.127 | 0.609
PDKRNHYIKLLN | 0.0965 | 0.683
PDKRNILIKLLN | 0.165 | 0.598
PDKRNKLIKLLN | 0.115 | 0.671
PDQRNHLIKLLN | 0.136 | 0.585
PFLAASFWRVVG | 0.154 | 0.693
PGLAASFWRVVG | 0.172 | 0.695
PRWRVGLWRGAS | 0.364 | 0.707
PSLAASFCRVVG | 0.618 | 0.645
PSLAASFFRVVG | 0.609 | 0.654
PSLAASFLRVVG | 0.641 | 0.642
PSLAASFQRVVG | 0.692 | 0.672
PSLAASFTRVVG | 0.647 | 0.648
PSLAASFWIVVG | 0.418 | 0.421
PSLAASFWMVVG | 0.525 | 0.637
PSLAASFWRMVG | 0.151 | 0.646
PSLAASFWRVIG | 0.151 | 0.677

Sequence | protein stability index [1] | protein stability index [2]
PSLAASFWRVRG | 0.666 | 0.683
PSLAASFWRVTG | 0.142 | 0.687
PSLAASFWRVVF | 0.699 | 0.701
PSLAASFWRVVGD | 0.689 | 0.691
PSLAASFWRVVGW | 0.714 | 0.699
PSLAASFWRVVK | 0.661 | 0.688
PSLAASRWRVVG | 0.156 | 0.682
PSLAAWFWRVVG | 0.147 | 0.706
PSLAAYFWRVVG | 0.142 | 0.677
PSLANSFWRVVG | 0.269 | 0.711
PSLATSFWRVVG | 0.158 | 0.687
PSLTASFWRVVG | 0.156 | 0.693
PSTAASFWRVVG | 0.135 | 0.701
QLIQPLPVQFLN | 0.0736 | 0.616
RLHQPLPVQFLN | 0.06 | 0.581
RLIQDLPVQFLN | 0.14 | 0.588
RLIQHLPVQFLN | 0.0489 | 0.636
RLIQPGPVQFLN | 0.102 | 0.611
RLIQPLPTQFLN | 0.215 | 0.638
RLIQPLPVHFLN | 0.0347 | 0.587
RLIQPLPVKFLN | 0.184 | 0.584
RLIQPLPVQFLC | 0.0371 | 0.566
RLIQPLPVQFLNG | 0.626 | 0.655
RLIQPLPVQFLNW | 0.667 | 0.686
